These results are taken from paper PMC7881018, “Granulovirus PK-1 kinase activity relies on a side-to-side dimerization mode centered on the regulatory αC helix” (Nature Communications, 2021).

The target of experiment [1] is PK-1 D160N, full length (Cydia pomonella granulovirus (CpGV)). Put plainly: SEC.
For the next experiment, the target named is T1, CpGV PK-1 (Cydia pomonella granulosis virus (isolate Mexican), UniProt Q91F41).
T1 construct: gene orf3 pk-1; full-length (residues 1-279), E. coli expressed; assay protein codon-optimised, His6 tag cut by TEV; crystal protein amplified from genomic DNA, TEV-cleavable His6-MBP tag; homodimer 66 kDa
Put plainly: X-ray crystal structure, […] A. The class given is binding. The following applies: co-crystallised with 1 mM AMP and 10 mM MnCl2; ATP site; 18 C.

The target of experiment [2] is PK-1 D141N, full length (Cydia pomonella granulovirus (CpGV)). Briefly: SEC. (Size exclusion chromatography separates by hydrodynamic size, large species first.)
The target of experiment [3] is Cydia pomonella granulovirus protein kinase-1 (PK-1), full-length wild type (pPROEX Htb construct) (Cydia pomonella granulovirus (CpGV)). Put plainly: AUC; sedimentation velocity, 0.9 mg/mL (27 μM), 20 °C, 50,000 rpm, 20 mM HEPES pH 7.5, 200 mM NaCl; c(s) model.
Experiment [4] has the same target. Put plainly: SEC.
Experiment [5] has the same target. Briefly: SAXS with inline SEC; 5 mg/mL (152 μM) injected on Superdex 200 5/150 Increase, 20 mM HEPES pH 7.5, 200 mM NaCl, 5% glycerol, 12 °C; scatter compared with the crystal dimer (CRYSOL), mass by SAXSMoW2.
For experiment [6], the target named is PK-1 K49A, full length (Cydia pomonella granulovirus (CpGV)). Briefly: SEC.
In experiment [7] the target is PK-1 15-279, truncated PK-1 lacking the domain-swapped N-terminal helix (Cydia pomonella granulovirus (CpGV)). Put plainly: SEC.
The target of experiment [8] is PK-1 E217DNEEE>QNNQQQ, acidic αF-αG loop mutant (Cydia pomonella granulovirus (CpGV)). Briefly: SEC.

In general, stoichiometry N refers to a count of units in the complex or per binding partner. PK-1 D160N, full length (enzyme) returned a stoichiometry N in [1] of 2.
With `Nc1ncnc2c1ncn2[C@@H]1O[C@H](COP(=O)(O)O)[C@@H](O)[C@H]1O` [AMP], the “X-ray crystal structure, 2.01 A” value at CpGV PK-1 was “crystal structure of PK-1 from C. pomonella granulovirus (CpGV) in complex with AMP”.
As to PK-1 D141N, full length (enzyme), the stoichiometry N in experiment [2] was 2.
“Cydia pomonella granulovirus protein kinase-1 (PK-1), full-length wild type (pPROEX Htb construct) (enzyme)”: the stoichiometry N in experiment [3], in experiment [4] and in experiment [5] was 2 throughout.
In experiment [6], PK-1 K49A, full length (enzyme) displayed a stoichiometry N of 2.
In the case of “PK-1 15-279, truncated PK-1 lacking the domain-swapped N-terminal helix (domain or fragment)”, the stoichiometry N in [7] amounted to 2.
Turning to “PK-1 E217DNEEE>QNNQQQ, acidic αF-αG loop mutant (enzyme)”, the stoichiometry N in experiment [8] was found to be 2.
